In patent publication US20260167721A1 (ABLEXIS, published 2026):

B1: Gemtuzumab (antibody, V domains shown)
VH: EVQLVQSGAEVKKPGSSVKVSCKASGYTITDSNIHWVRQAPGQSLEWIGYIYPYNGGTDYNQKFKNRATLTVDNPTNTAYMELSSLRSEDTAFYYCVNGNPWLAYWGQGTLVTVSS
VL: DIQLTQSPSTLSASVGDRVTITCRASESLDNYGIRFLTWFQQKPGKAPKLLMYAASNQGSGVPSRFSGSGSGTEFTLTISSLQPDDFATYYCQQTKEVPWSFGQGTKVEVKR
B2: CD3 × CD33-BspAb115 (bispecific antibody)
chain 1: NFMLTQPHSVSESPGKTVTISCTRTSGSIASNYVQWYQQRPGSSPTTVIYEDNQRPSGVPDRFSGSIDSSSNSASLTISGLKTEDEAAYYCQSYDRSNRVFGCGTKLTVLGGGGSGGGGSGGGGSGGGGSQVQLQESGPGLVKPSETLSLTCTVSGGSISSYYWSWIRQPAGKCLEWIGRIYTSGSTKYNPSLKSRVTMSVDTSKNQFSLKLISVTAADTAVYFCARERIRDLYFDYWGQGTLVTVSSDKTHTCPPCPAPEFEGGPSVFLFPPKPKDTLMISRTPEVTCVVVDVSHEDPEVKFNWYVDGVEVHNAKTKPREEQYNSTYRVVSVLTVLHQDWLNGKEYKCKVSNKALPASIEKTISKAKGQPREPQVYTLPPCREEMTKNQVSLWCLVKGFYPSDIAVEWESNGQPENNYKTTPPVLDSDGSFFLYSKLTVDKSRWQQGNVFSCSVMHEALHNHYTQKSLSLSPGK
chain 2: EVQLVQSGAEVKKPGSSVKVSCKASGYTITDSNIHWVRQAPGQSLEWIGYIYPYNGGTDYNQKFKNRATLTVDNPTNTAYMELSSLRSEDTAFYYCVNGNPWLAYWGQGTLVTVSSASTKGPSVFPLAPSSKSTSGGTAALGCLVKDYFPEPVTVSWNSGALTSGVHTFPAVLQSSGLYSLSSVVTVPSSSLGTQTYICNVNHKPSNTKVDKRVEPKSCDKTHTCPPCPAPEFEGGPSVFLFPPKPKDTLMISRTPEVTCVVVDVSHEDPEVKFNWYVDGVEVHNAKTKPREEQYNSTYRVVSVLTVLHQDWLNGKEYKCKVSNKALPASIEKTISKAKGQPREPQVCTLPPSREEMTKNQVSLSCAVKGFYPSDIAVEWESNGQPENNYKTTPPVLDSDGSFFLVSKLTVDKSRWQQGNVFSCSVMHEALHNRFTQKSLSLSPGK
chain 3: DIQLTQSPSTLSASVGDRVTITCRASESLDNYGIRFLTWFQQKPGKAPKLLMYAASNQGSGVPSRFSGSGSGTEFTLTISSLQPDDFATYYCQQTKEVPWSFGQGTKVEVKRTVAAPSVFIFPPSDEQLKSGTASVVCLLNNFYPREAKVQWKVDNALQSGNSQESVTEQDSKDSTYSLSSTLTLSKADYEKHKVYACEVTHQGLSSPVTKSFNRGEC
B3: High affinity Control (Control Humanized anti-CD3 (high affinity) scFv-Fc knob/TM x gemtuzumab) (bispecific antibody)
chain: EVQLVESGGGLVQPGGSLRLSCAASGFTFSTYAMNWVRQAPGKGLEWVGRIRSKYNNYATYYADSVKGRFTISRDDSKNTLYLQMNSLRAEDTAVYYCVRHGNFGDSYVSWFAYWGQGTLVTVSSGKPGSGKPGSGKPGSGKPGSQAVVTQEPSLTVSPGGTVTLTCGSSTGAVTTSNYANWVQQKPGKSPRGLIGGTNKRAPGVPARFSGSLLGGKAALTISGAQPEDEADYYCALWYSNHWVFGGGTKLTVLGGGGSDKTHTCPPCPAPEFEGGPSVFLFPPKPKDTLMISRTPEVTCVVVDVSHEDPEVKFNWYVDGVEVHNAKTKPREEQYNSTYRVVSVLTVLHQDWLNGKEYKCKVSNKALPASIEKTISKAKGQPREPQVYTLPPCREEMTKNQVSLWCLVKGFYPSDIAVEWESNGQPENNYKTTPPVLDSDGSFFLYSKLTVDKSRWQQGNVFSCSVMHEALHNHYTQKSLSLSPGK
heavy: EVQLVQSGAEVKKPGSSVKVSCKASGYTITDSNIHWVRQAPGQSLEWIGYIYPYNGGTDYNQKFKNRATLTVDNPTNTAYMELSSLRSEDTAFYYCVNGNPWLAYWGQGTLVTVSSASTKGPSVFPLAPSSKSTSGGTAALGCLVKDYFPEPVTVSWNSGALTSGVHTFPAVLQSSGLYSLSSVVTVPSSSLGTQTYICNVNHKPSNTKVDKRVEPKSCDKTHTCPPCPAPEFEGGPSVFLFPPKPKDTLMISRTPEVTCVVVDVSHEDPEVKFNWYVDGVEVHNAKTKPREEQYNSTYRVVSVLTVLHQDWLNGKEYKCKVSNKALPASIEKTISKAKGQPREPQVCTLPPSREEMTKNQVSLSCAVKGFYPSDIAVEWESNGQPENNYKTTPPVLDSDGSFFLVSKLTVDKSRWQQGNVFSCSVMHEALHNRFTQKSLSLSPGK
light: DIQLTQSPSTLSASVGDRVTITCRASESLDNYGIRFLTWFQQKPGKAPKLLMYAASNQGSGVPSRFSGSGSGTEFTLTISSLQPDDFATYYCQQTKEVPWSFGQGTKVEVKRTVAAPSVFIFPPSDEQLKSGTASVVCLLNNFYPREAKVQWKVDNALQSGNSQESVTEQDSKDSTYSLSSTLTLSKADYEKHKVYACEVTHQGLSSPVTKSFNRGEC
B4: Low affinity Control (Control Humanized anti-CD3 (low affinity) scFv-Fc knob/TM x gemtuzumab) (bispecific antibody)
chain: EVQLVESGGGLVQPGGSLRLSCAASGFTFSTYAMNWVRQAPGKGLEWVGRIRSKYNNYATYYADSVKGRFTISRDDSKNTLYLQMNSLRAEDTAVYYCVRHGNFGDSYVSWFDYWGQGTLVTVSSGKPGSGKPGSGKPGSGKPGSQAVVTQEPSLTVSPGGTVTLTCGSSTGAVTTSNYANWVQQKPGKSPRGLIGGTNKRAPGVPARFSGSLLGGKAALTISGAQPEDEADYYCALWYSNHWVFGGGTKLTVLGGGGSDKTHTCPPCPAPEFEGGPSVFLFPPKPKDTLMISRTPEVTCVVVDVSHEDPEVKFNWYVDGVEVHNAKTKPREEQYNSTYRVVSVLTVLHQDWLNGKEYKCKVSNKALPASIEKTISKAKGQPREPQVYTLPPCREEMTKNQVSLWCLVKGFYPSDIAVEWESNGQPENNYKTTPPVLDSDGSFFLYSKLTVDKSRWQQGNVFSCSVMHEALHNHYTQKSLSLSPGK
heavy: EVQLVQSGAEVKKPGSSVKVSCKASGYTITDSNIHWVRQAPGQSLEWIGYIYPYNGGTDYNQKFKNRATLTVDNPTNTAYMELSSLRSEDTAFYYCVNGNPWLAYWGQGTLVTVSSASTKGPSVFPLAPSSKSTSGGTAALGCLVKDYFPEPVTVSWNSGALTSGVHTFPAVLQSSGLYSLSSVVTVPSSSLGTQTYICNVNHKPSNTKVDKRVEPKSCDKTHTCPPCPAPEFEGGPSVFLFPPKPKDTLMISRTPEVTCVVVDVSHEDPEVKFNWYVDGVEVHNAKTKPREEQYNSTYRVVSVLTVLHQDWLNGKEYKCKVSNKALPASIEKTISKAKGQPREPQVCTLPPSREEMTKNQVSLSCAVKGFYPSDIAVEWESNGQPENNYKTTPPVLDSDGSFFLVSKLTVDKSRWQQGNVFSCSVMHEALHNRFTQKSLSLSPGK
light: DIQLTQSPSTLSASVGDRVTITCRASESLDNYGIRFLTWFQQKPGKAPKLLMYAASNQGSGVPSRFSGSGSGTEFTLTISSLQPDDFATYYCQQTKEVPWSFGQGTKVEVKRTVAAPSVFIFPPSDEQLKSGTASVVCLLNNFYPREAKVQWKVDNALQSGNSQESVTEQDSKDSTYSLSSTLTLSKADYEKHKVYACEVTHQGLSSPVTKSFNRGEC
B5: CD3 × CD33-BspAb125 (bispecific antibody)
chain 1: not shown
chain 2: EVQLVQSGAEVKKPGSSVKVSCKASGYTITDSNIHWVRQAPGQSLEWIGYIYPYNGGTDYNQKFKNRATLTVDNPTNTAYMELSSLRSEDTAFYYCVNGNPWLAYWGQGTLVTVSSASTKGPSVFPLAPSSKSTSGGTAALGCLVKDYFPEPVTVSWNSGALTSGVHTFPAVLQSSGLYSLSSVVTVPSSSLGTQTYICNVNHKPSNTKVDKRVEPKSCDKTHTCPPCPAPEFEGGPSVFLFPPKPKDTLMISRTPEVTCVVVDVSHEDPEVKFNWYVDGVEVHNAKTKPREEQYNSTYRVVSVLTVLHQDWLNGKEYKCKVSNKALPASIEKTISKAKGQPREPQVCTLPPSREEMTKNQVSLSCAVKGFYPSDIAVEWESNGQPENNYKTTPPVLDSDGSFFLVSKLTVDKSRWQQGNVFSCSVMHEALHNRFTQKSLSLSPGK
chain 3: DIQLTQSPSTLSASVGDRVTITCRASESLDNYGIRFLTWFQQKPGKAPKLLMYAASNQGSGVPSRFSGSGSGTEFTLTISSLQPDDFATYYCQQTKEVPWSFGQGTKVEVKRTVAAPSVFIFPPSDEQLKSGTASVVCLLNNFYPREAKVQWKVDNALQSGNSQESVTEQDSKDSTYSLSSTLTLSKADYEKHKVYACEVTHQGLSSPVTKSFNRGEC

Experiments:
[1] = biological target: T1, CD3 on human donor PBMC / Pan T effector cells (human, UniProt P07766 23-207; P09693 23-182; P04234 22-171; P20963 22-164); test: cell-based or functional assay
T1 sequence (P07766 23-207, chain 1 of 4): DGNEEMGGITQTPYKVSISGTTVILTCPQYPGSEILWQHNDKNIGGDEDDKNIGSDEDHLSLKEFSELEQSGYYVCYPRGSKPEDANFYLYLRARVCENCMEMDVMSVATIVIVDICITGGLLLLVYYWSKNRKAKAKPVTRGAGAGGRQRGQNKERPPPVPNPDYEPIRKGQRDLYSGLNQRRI
T1 sequence (P09693 23-182, chain 2 of 4): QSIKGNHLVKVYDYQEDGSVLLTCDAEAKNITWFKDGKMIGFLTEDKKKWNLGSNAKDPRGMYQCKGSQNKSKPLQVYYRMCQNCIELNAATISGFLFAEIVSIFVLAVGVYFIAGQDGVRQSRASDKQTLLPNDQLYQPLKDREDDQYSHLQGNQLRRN
T1 sequence (P04234 22-171, chain 3 of 4): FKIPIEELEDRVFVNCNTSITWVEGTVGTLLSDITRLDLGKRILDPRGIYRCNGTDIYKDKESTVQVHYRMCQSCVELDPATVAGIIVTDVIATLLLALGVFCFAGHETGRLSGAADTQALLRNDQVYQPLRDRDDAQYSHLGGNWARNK
T1 sequence (P20963 22-164, chain 4 of 4): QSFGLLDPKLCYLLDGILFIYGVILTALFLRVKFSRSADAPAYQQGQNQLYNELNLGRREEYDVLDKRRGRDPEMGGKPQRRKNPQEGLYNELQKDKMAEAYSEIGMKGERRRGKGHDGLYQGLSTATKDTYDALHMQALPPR

[2] = biological target: T1, CD3 on human donor PBMC / Pan T …; test: cell-based or functional assay; remark: listed apart in the source

Binder | Cytokine Release Assay (IL2) Donor 0 EC50 [1] | Cytokine Release Assay (IL2) Donor 0 gMFI max [1] | Cytokine Release Assay (IL2) Donor 1 gMFI max [1] | Cytokine Release Assay (IL2) Donor 2 gMFI max [1] | Cytokine Release Assay (IL2) Donor 3 gMFI max [1] | Cytokine Release Assay (TNFα) Donor 0 gMFI max [2] | Cytokine Release Assay (TNFα) Donor 1 gMFI max [2] | Cytokine Release Assay (TNFα) Donor 2 gMFI max [2] | Cytokine Release Assay (TNFα) Donor 3 gMFI max [2] | Cytokine Release Assay (IL2) Donor 1 EC50 [1] | Cytokine Release Assay (IL2) Donor 2 EC50 [1] | Cytokine Release Assay (IL2) Donor 3 EC50 [1] | Cytokine Release Assay (TNFα) Donor 0 EC50 [2] | Cytokine Release Assay (TNFα) Donor 1 EC50 [2] | Cytokine Release Assay (TNFα) Donor 2 EC50 [2] | Cytokine Release Assay (TNFα) Donor 3 EC50 [2]
B1 | 5360 pM | 12500 gMFI | 12900 gMFI | 10700 gMFI | 12200 gMFI | 5310 gMFI | 4430 gMFI | 3680 gMFI | 3960 gMFI |  |  |  |  |  |  | 
B2 | 206 pM | 242000 gMFI | 99300 gMFI | 45200 gMFI | 300000 gMFI | 91600 gMFI | 13000 gMFI | 24100 gMFI | 48600 gMFI | 75.5 pM | 80.7 pM | 47.9 pM | 81.4 pM | 55.3 pM | 45.2 pM | 46 pM
B3 | 456 pM | 377000 gMFI | 179000 gMFI | 121000 gMFI | 347000 gMFI | 231000 gMFI | 113000 gMFI | 125000 gMFI | 129000 gMFI | 1640 pM | 16700 pM | 172 pM | 459 pM | 13100 pM | 5980 pM | 212 pM
B4 | 2290 pM | 24300 gMFI | 18500 gMFI | 15700 gMFI | 21200 gMFI | 222000 gMFI | 82800 gMFI | 135000 gMFI | 122000 gMFI | 10800 pM |  | 2920 pM | 550 pM |  | 24600 pM | 40700 pM
B5 | 106 pM | 52800 gMFI | 22300 gMFI | 25100 gMFI | 65800 gMFI | 39600 gMFI | 5100 gMFI | 12000 gMFI | 17800 gMFI | 102 pM | 115 pM |  | 475 pM |  | 54 pM | 44.6 pM
